T1: Human LAG-3 ECD-His (human, UniProt P18627 23-449)
T1 construct: Soluble analyte in SPR; the entry includes linker and His tag; also called human LAG-3-His
T1 sequence: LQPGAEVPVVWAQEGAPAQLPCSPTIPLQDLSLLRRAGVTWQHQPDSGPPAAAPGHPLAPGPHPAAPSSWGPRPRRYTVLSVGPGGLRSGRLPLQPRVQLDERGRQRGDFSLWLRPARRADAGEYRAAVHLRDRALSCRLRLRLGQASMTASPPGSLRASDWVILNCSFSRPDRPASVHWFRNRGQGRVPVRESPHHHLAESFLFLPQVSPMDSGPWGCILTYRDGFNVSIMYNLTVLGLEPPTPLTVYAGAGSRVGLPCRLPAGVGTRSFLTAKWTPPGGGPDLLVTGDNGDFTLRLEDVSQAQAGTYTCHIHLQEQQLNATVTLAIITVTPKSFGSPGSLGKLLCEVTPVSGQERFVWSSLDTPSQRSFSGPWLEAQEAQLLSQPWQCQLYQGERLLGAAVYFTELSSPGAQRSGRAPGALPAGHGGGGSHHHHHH


Assays:
Human LAG-3 ECD-His [1] = molecular target: T1, Human LAG-3 ECD-His; assay: SPR (Biacore T200), antibody captured on PrismA chip, ECD as analyte, 25° C.
Protocol: (§1) A Biacore® T200 (Cytiva, Marlborough, MA) was used to measure the binding kinetics and affinities of the LAG-3 antibody to the LAG-3 soluble extracellular domain (ECD) and the bispecific antibody to soluble LAG-3-ECD and PD-1-ECD (human: Sino Biologicals, Cat #10377-H08H; cynomolgus: Sino Biologicals, Cat #90311-C08H) by surface plasmon resonance. Samples were diluted in HBS-EP+ (10 mM Hepes, 150 mM NaCl, 3 mM EDTA, 0.05% Tween-20, pH 7.6) (Teknova Cat #H8022) with 5 g/L of BSA (Jackson ImmunoResearch Cat #001-000-161) running buffer. PrismA Series S Sensor chip (Cat #29650263) is purchased from Cytiva.
(§2) Binding was evaluated using multi-cycle kinetics by an antibody capture method. Each cycle was performed at either 37° C. or 25° C. at a flow rate of 10 μL/min for antibody capture to the PrismA chip and 100 μL/min for analyte association (with 120 sec contact time) and dissociation (900 sec). Each cycle consisted of the following steps: injection of bispecific antibody at 1 μg/mL in HBS-EP+ targeting Rmax values of 125 RU (LAG-3 arm), 294 RU (PD-1 arm) and 63 RU (LAG-3 antibody) on flow cell, injection of analyte in HBS-EP+(concentration range of 62.5 nM to 0.25 nM by two-fold serial dilution for both human PD-1-ECD-His (SEQ ID NO: 40) and human LAG-3-His (SEQ ID NO: 42) followed by 900-second dissociation phase, and regeneration using 10 μL of 10 mM glycine hydrochloride, pH 1.5 over a 60-second contact time utilizing a 10 μL/min flow rate. All analyte concentrations were determined utilizing monomeric molecular weight (MW) values. Association rates (kₒₙ) and dissociation rates (koff) for LAG-3-ECD and PD-1-ECD were evaluated using double referencing by flow-cell one reference subtraction in addition to 0 nM blank subtraction and fit to “1:1 (Langmuir) binding” model in the BIAevaluation software version 4.1. The dissociation constant (KD) was calculated from the binding kinetics according to the relationship KD=Koff/Kₒₙ. Stoichiometry=[RUₘₐₓ/RUcaptured]/[MWanalyte/MWantibody] where MWAntibodyA is 150 kDa. Values are reported as mean±standard deviation.

[2] = molecular target: T2, cell membrane-expressed human LAG-3/PD-1 (human, UniProt P18627 23-525; Q15116 25-288); assay: flow cytometry, labeled antibody on anti-CD3 activated human PBMC, CD4 T cells, percent of cells bound (mean +/- SEM, n=3)
T2 construct: also called Human CD4
T2 sequence (Q15116 25-288 limits assumed, one chain of several): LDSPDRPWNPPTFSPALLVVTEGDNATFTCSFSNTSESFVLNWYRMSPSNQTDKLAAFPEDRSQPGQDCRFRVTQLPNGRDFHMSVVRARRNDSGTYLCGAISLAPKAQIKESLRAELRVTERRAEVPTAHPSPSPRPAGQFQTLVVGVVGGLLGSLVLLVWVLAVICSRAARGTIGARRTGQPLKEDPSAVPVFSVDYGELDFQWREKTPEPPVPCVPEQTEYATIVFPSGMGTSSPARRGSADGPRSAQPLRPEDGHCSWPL
Protocol: Cells were incubated with 10-12 point, 3-fold serial dilutions of the respective labeled antibody (Invitrogen #S20026, Invitrogen #C20029), starting at 30 ug/mL, in PBS+2% FCS for 30 minutes at 4° C. and containing the following: CD4 eBioscience #12-0047-42 or Biolegend #344634; CD8 eBioscience #25-0088-42; CD3 eBioscience 56-0038-82 for human cells and BD #557917 for cyno cells; CD33 eBioscience 45-0338-42 for human cells; Live/Dead eBioscience #65-0865-18. After washing thoroughly, cells were processed on a BD Fortessa or Fortessa X20 cytometer, and data were analyzed with Flowjo software (BD Biosciences). Percent of cells bound by the respective antibody is quantified and graphed with Prism (Graphpad, San Diego, CA).

Human PD-1 ECD-His [3] = molecular target: T3, Human PD-1 ECD-His (human, UniProt Q15116 25-167); assay: SPR (Biacore T200), antibody captured on PrismA chip, ECD as analyte, 25° C.; 25° C.
T3 construct: Soluble analyte in SPR; the entry includes the His tag
T3 sequence (Q15116 other isoform, or with tags, fused parts or gaps): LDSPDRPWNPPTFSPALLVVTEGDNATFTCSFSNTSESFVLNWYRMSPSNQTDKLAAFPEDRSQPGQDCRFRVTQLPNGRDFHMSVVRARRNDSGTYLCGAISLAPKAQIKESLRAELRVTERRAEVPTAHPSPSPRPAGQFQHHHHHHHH
Protocol: as §1
(§3) Binding was evaluated using multi-cycle kinetics by an antibody capture method. […] Each cycle consisted of the following steps: injection of bispecific antibody at 1 μg/mL in HBS-EP+ targeting Rmax values of 125 RU (LAG-3 arm), 294 RU (PD-1 arm) and 63 RU (LAG-3 antibody) on flow cell, injection of analyte in HBS-EP+(concentration range of 62.5 nM to 0.25 nM by two-fold serial dilution for both human PD-1-ECD-His (SEQ ID NO: 40) and human LAG-3-His (SEQ ID NO: 42) followed by 900-second dissociation phase, and regeneration using 10 μL of 10 mM glycine hydrochloride, pH 1.5 over a 60-second contact time utilizing a 10 μL/min flow rate. All analyte concentrations were determined utilizing monomeric molecular weight (MW) values. […]

Human PD-1 ECD-His [4] = molecular target: T3, Human PD-1 ECD-His; assay: SPR (Biacore T200), antibody captured on PrismA chip, ECD as analyte, 37° C.
Protocol: as §1, §2

Cynomolgus PD-1-ECD = molecular target: T4, Cynomolgus PD-1-ECD (cynomolgus, UniProt B0LAJ3 25-170); assay: as above
T4 construct: commercial protein; also called cynomolgus PD-1-ECD (Sino Biologicals, Cat #90311-C08H); not shown: C-terminal polyhistidine tag of the vendor product (Sino Biological 90311-C08H)
T4 sequence (B0LAJ3 entry or part of it limits assumed): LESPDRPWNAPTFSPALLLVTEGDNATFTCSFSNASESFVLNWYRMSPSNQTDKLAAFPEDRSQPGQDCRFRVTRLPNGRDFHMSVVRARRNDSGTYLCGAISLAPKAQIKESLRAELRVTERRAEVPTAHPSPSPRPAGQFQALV
Protocol: as §1, §2

Human PD-1 ECD-His [5] = molecular target: T3, Human PD-1 ECD-His; assay: SPR (Biacore T200), antibody captured on PrismA chip, ECD as analyte; temperature unclear: the 37° C. label is printed only at r14, by the order of Table 3a probably 37° C.
Protocol: as §1, §2

Human LAG-3 ECD-His [6] = molecular target: T1, Human LAG-3 ECD-His; assay: SPR (Biacore T200), antibody captured on PrismA chip, ECD as analyte, 37° C.
Protocol: as §1, §2

Human PD-1 ECD-His [7] = molecular target: T3, Human PD-1 ECD-His; assay: SPR (Biacore T200), antibody captured on PrismA chip, ECD as analyte; temperature unclear: the 37° C. label is printed only at r14, by the order of Table 3a probably 37° C.; 37° C. (label printed late, at r14)
Protocol: as §1, §3

Binder | Kd (Human LAG-3 ECD-His [1]) | koff (Human LAG-3 ECD-His [1]) | kon (Human LAG-3 ECD-His [1]) | EC50 [2] | kon (Human PD-1 ECD-His [3]) | Kd (Human PD-1 ECD-His [4]) | koff (Human PD-1 ECD-His [4]) | kon (Human PD-1 ECD-His [4]) | Kd (Cynomolgus PD-1-ECD) | koff (Cynomolgus PD-1-ECD) | kon (Cynomolgus PD-1-ECD) | Kd (Human PD-1 ECD-His [5]) | koff (Human PD-1 ECD-His [5]) | Kd (Human LAG-3 ECD-His [6]) | koff (Human LAG-3 ECD-His [6]) | kon (Human LAG-3 ECD-His [6]) | kon (Human PD-1 ECD-His [7])
Antibody A (bispecific antibody, human IgG1, kappa, lambda, IgG-like bispecific with one LAG-3 arm and one PD-1 arm; also called human LAG-3/human PD-1 dual agonist bispecific antibody) heavy 1: not shown light 1: DIVMTQTPLSLPVTPGEPASISCRSSQSLLDSAEGSTYLDWFLRKPGDSPQLLIYTLSYRASGVPDRFSGSGSGTDFTLKISRVEAEDVGVYYCMQRVEFPYTFGQGTKVEIKRTVAAPSVFIFPPSKEQLKSGTASVVCLLNNFYPREAKVQWKVDNALQSGNSQESVTEQDSKDSTYSLSSTLTLSKADYEKHKVYACEVTHQGLSSPVTKSFNRGEC heavy 2: QVQLVQSGAEVKKPGASVKVSCKVSGYSLSKYDMSWVRKAPGKGLEWMGIIYTSGYTDYAQEFQGRVTMTEDTSTDTAYMELSSLRSEDTAVYYCATGNPYYTNGFNSWGQGTLVTVSSASTKGPSVFPLAPSSKSTSGGTAALGCLVKDYFPEPVTVSWNSGALTSGVATGPAVLQSSGLYSLSSVVTVPSSSLGTQTYICNVNHKPSNTKVDKRVEPKSCDKTHTCPPCPAPELLGGPSVFLFPPKPKDTLMISRTPEVTCVVVDVSHEDPEVKFNWYVDGVEVHNAKTKPREEQYNSTYRVVSVLTVLHQDWLNGKEYKCKVSNKALPAPIEKTISKAKGQPREPQVYTLPPSREEMTDNQVSLTCLVKGFYPSDIAVEWESNGQPENNYKTTPPVLMSDGSFFLASKLTVDKSRWQQGNVFSCSVMHEALHNHYTQKSLSLSPGK light 2: RIQMTQSPSSLSASVGDRVTITCQASQSPNNLLAWYQDKPGKAPKLLIYGASDLPSGVPSRFSGSGSGTDFTLTISSLQPEDFATYYCQNNYYVGPVSYAFGGGTKVEIKGQPKAAPSVTLFPPSSEELQANKATLVCYISDFYPGAVTVAWKADSSPVKAGVETTTPSKQSNNKYAAWSYLSLTPEQWKSHRSYSCQVTHEGSTVEKTVAPTEC | 0.55 nM | 0.019 s⁻¹ | 3.4e+07 M⁻¹ s⁻¹ | 0.0357 µg/mL | 750000 M⁻¹ s⁻¹ | 0.66 nM | 0.0017 s⁻¹ | 2.5e+06 M⁻¹ s⁻¹ | 3.5 nM | 0.0087 s⁻¹ | 2.5e+06 M⁻¹ s⁻¹ |  |  |  |  |  | 
Antibody B (bispecific antibody, human IgG1, kappa, lambda, also called human LAG-3/human PD-1 dual agonist bispecific antibody) heavy 1: not shown light 1: DIVMTQTPLSLPVTPGEPASISCRSSQSLLDSAEGSTYLDWFLRKPGDSPQLLIYTLSYRASGVPDRFSGSGSGTDFTLKISRVEAEDVGVYYCMQRVEFPYTFGQGTKVEIKRTVAAPSVFIFPPSKEQLKSGTASVVCLLNNFYPREAKVQWKVDNALQSGNSQESVTEQDSKDSTYSLSSTLTLSKADYEKHKVYACEVTHQGLSSPVTKSFNRGEC heavy 2: QVQLVQSGAEVKKPGASVKVSCKVSGYSLSKYDMSWVRKAPGKGLEWMGIIYTSGYTDYAQEFQGRVTMTEDTSTDTAYMELSSLRSEDTAVYYCATGNPYYTNGFNSWGQGTLVTVSSASTKGPSVFPLAPSSKSTSGGTAALGCLVKDYFPEPVTVSWNSGALTSGVATGPAVLQSSGLYSLSSVVTVPSSSLGTQTYICNVNHKPSNTKVDKRVEPKSCDKTHTCPPCPAPELLGGPSVFLFPPKPKDTLMISRTPEVTCVVVDVSHEDPEVKFNWYVDGVEVHNAKTKPREEQYNSTYRVVSVLTVLHQDWLNGKEYKCAVSNKALPAPIEKTISKAKGQPREPQVYTLPPSREEMTDNQVSLTCLVKGFYPSDIAVEWESNGQPENNYKTTPPVLMSDGSFFLASKLTVDKSRWQQGNVFSCSVMHEALHNHYTQKSLSLSPGK light 2: RIQMTQSPSSLSASVGDRVTITCQASQSPNNLLAWYQDKPGKAPKLLIYGASDLPSGVPSRFSGSGSGTDFTLTISSLQPEDFATYYCQNNYYVGPVSYAFGGGTKVEIKGQPKAAPSVTLFPPSSEELQANKATLVCYISDFYPGAVTVAWKADSSPVKAGVETTTPSKQSNNKYAAWSYLSLTPEQWKSHRSYSCQVTHEGSTVEKTVAPTEC | 0.53 nM | 0.023 s⁻¹ | 4.3e+07 M⁻¹ s⁻¹ | 0.0423 µg/mL |  |  |  |  |  |  |  | 0.65 nM | 0.0015 s⁻¹ | 6.1 nM | 0.34 s⁻¹ | 5.5e+07 M⁻¹ s⁻¹ | 2.4e+06 M⁻¹ s⁻¹

From patent US20240166745A1 (Eli Lilly, published 2024)
